Test results: patent US20240425885

What was measured:
Assay in all cases: cleavage_in_vitro
[1] = system: T1, OMNI-93 (metagenomic, unknown); details: TXTL
T1 sequence: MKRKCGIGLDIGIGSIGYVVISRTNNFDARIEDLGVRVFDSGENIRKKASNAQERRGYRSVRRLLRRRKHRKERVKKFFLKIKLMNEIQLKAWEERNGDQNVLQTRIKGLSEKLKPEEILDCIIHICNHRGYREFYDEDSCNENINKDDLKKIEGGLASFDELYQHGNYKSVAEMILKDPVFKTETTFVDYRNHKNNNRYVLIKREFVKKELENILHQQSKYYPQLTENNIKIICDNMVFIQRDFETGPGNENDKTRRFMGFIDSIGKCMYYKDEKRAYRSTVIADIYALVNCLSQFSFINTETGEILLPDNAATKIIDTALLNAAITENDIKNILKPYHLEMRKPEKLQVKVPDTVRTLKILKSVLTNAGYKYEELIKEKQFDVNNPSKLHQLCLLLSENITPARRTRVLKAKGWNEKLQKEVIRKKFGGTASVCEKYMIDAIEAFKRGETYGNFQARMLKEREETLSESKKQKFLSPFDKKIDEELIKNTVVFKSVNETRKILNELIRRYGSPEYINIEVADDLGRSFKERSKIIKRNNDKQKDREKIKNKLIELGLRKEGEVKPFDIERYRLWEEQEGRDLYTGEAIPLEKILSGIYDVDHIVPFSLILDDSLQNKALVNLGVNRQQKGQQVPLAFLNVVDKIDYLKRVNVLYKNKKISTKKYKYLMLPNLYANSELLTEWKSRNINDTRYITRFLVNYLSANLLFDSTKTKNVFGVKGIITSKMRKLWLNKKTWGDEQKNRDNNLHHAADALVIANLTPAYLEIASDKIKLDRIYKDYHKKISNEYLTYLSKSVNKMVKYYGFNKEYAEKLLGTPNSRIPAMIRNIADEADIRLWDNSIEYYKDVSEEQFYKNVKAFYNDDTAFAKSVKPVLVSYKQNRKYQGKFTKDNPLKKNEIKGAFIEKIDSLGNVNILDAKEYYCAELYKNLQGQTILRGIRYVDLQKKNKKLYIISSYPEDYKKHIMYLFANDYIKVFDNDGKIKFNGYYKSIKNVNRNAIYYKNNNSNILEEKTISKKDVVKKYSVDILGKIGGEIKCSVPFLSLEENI

[2] = system: T2, OMNI-118 (metagenomic, unknown); details: TXTL; PAM NNRTTHNN
T2 sequence: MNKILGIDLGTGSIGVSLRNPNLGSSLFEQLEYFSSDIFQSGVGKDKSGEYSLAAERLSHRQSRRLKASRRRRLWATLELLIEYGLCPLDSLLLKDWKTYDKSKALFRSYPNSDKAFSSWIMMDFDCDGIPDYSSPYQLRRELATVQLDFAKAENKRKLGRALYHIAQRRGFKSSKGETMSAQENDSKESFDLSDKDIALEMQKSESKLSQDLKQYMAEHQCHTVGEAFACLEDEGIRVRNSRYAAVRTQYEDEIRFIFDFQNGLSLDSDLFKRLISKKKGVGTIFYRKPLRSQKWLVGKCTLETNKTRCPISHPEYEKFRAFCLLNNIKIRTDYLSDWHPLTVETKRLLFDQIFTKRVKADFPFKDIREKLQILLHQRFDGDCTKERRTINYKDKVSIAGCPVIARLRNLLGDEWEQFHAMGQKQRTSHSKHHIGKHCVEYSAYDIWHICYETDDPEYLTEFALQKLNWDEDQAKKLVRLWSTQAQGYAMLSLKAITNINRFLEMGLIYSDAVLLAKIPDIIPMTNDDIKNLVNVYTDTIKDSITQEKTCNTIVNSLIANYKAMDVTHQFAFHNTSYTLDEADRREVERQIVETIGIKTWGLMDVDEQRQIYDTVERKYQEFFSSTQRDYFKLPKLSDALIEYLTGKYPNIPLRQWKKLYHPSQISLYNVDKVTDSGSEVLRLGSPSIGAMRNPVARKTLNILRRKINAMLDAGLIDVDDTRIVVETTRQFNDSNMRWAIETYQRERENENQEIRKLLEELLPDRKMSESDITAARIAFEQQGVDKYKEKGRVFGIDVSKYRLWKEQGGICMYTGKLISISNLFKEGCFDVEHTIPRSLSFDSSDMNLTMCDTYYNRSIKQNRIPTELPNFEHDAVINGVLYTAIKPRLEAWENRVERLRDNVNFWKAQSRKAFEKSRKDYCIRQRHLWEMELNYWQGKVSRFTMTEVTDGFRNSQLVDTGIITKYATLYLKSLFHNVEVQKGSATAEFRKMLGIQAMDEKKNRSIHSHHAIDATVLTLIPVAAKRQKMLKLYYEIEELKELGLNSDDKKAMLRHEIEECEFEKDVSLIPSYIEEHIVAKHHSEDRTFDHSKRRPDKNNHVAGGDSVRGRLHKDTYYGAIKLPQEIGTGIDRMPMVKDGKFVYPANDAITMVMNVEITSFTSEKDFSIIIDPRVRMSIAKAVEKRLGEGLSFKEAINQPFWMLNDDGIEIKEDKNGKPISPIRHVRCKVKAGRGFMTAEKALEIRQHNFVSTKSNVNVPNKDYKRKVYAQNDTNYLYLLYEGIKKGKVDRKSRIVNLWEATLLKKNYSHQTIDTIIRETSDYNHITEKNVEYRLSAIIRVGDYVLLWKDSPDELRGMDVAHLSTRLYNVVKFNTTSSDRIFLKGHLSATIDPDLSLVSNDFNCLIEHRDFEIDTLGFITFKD

[3] = system: T3, OMNI-132 (metagenomic, unknown); details: TXTL; PAM NNAAATNN
T3 sequence: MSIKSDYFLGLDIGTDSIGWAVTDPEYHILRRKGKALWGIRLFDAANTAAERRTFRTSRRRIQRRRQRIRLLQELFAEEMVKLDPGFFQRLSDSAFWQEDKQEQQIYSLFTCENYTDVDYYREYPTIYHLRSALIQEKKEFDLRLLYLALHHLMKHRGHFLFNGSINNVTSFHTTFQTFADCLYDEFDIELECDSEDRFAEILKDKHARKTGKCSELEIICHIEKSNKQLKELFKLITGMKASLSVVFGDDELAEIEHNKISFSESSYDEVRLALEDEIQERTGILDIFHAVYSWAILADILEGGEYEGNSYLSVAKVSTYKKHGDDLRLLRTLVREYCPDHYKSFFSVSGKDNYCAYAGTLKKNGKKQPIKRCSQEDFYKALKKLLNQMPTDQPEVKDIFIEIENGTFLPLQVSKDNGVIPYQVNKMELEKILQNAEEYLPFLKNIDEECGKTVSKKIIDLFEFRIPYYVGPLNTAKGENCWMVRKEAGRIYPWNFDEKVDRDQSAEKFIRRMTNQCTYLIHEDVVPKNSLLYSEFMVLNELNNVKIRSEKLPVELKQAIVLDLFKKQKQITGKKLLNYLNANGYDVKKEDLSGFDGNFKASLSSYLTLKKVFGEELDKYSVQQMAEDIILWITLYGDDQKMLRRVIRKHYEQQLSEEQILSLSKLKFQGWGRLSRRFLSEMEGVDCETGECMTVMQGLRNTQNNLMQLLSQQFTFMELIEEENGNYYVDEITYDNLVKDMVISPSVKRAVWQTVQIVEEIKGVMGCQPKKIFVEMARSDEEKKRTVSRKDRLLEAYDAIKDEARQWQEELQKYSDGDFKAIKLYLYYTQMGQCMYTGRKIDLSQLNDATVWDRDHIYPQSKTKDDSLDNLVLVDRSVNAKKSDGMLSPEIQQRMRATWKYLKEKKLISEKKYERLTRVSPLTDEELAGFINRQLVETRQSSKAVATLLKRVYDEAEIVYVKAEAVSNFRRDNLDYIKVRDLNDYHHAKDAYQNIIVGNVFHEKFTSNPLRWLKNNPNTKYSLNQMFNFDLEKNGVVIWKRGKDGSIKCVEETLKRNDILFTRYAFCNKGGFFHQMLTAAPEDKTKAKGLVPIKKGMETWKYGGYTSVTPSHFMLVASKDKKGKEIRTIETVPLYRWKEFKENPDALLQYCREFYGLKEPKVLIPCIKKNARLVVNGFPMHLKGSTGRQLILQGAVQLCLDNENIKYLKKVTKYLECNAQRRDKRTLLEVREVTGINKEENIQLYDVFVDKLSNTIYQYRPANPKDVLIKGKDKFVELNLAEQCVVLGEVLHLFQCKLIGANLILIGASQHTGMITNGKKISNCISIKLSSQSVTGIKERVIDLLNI

| Sequence | activity (1-depletion score) [2] | activity (1-depletion score) [3] | also measured |
| --- | --- | --- | --- |
| GGAAGAGCAGAGCCUUGGUCUCGUCUUAGUACUCUGUUGGAAACAACAAUAGUUCUAAGAUAAGGCUAUUUAUGCCGUAGGGUAUGGUGGUAUCCCUUUAAUCCACCUUUAAGCCAUUGCUUAUGCAAUGGCUUAUCUAUAUUUUUU / GGAAGAGCAGAGCCTTGGTCTCNNNNNNNN / NNNNNNNNGAGACCAAGGCTCTGCTCTTCC [T2 sgRNA 4 V2 ; T2 protospacer + 8N PAM library (pbPOS T2)] |  |  | activity (1-depletion score) ([1]; PAM NNGGGGNN): 0.97 |
| GGAAGAGCAGAGCCUUGGUCUCGUUGUGAUUUGCUCUCAAAUGAAAAUUUGUGAGACUUAUCACAACAAGGCUAUAAGCCGAAGUAUUAACUCCGCGAUUAUGUCGUGGAGUUUUUUU / GGAAGAGCAGAGCCTTGGTCTCNNNNNNNN / NNNNNNNNGAGACCAAGGCTCTGCTCTTCC [T2 sgRNA 21 V2 ; T2 protospacer + 8N PAM library (pbPOS T2)] | 0.78 |  |  |
| GGAAGAGCAGAGCCUUGGUCUCGUUGUGAUUUGCUCUCAAAUGAAAAUUUGUGAGACUUAUCACAACAAGGCUAUAAGCCGAAGUAUUAACUCCGCGAUUUUGUCGUGGAGUUUUUUU / GGAAGAGCAGAGCCTTGGTCTCNNNNNNNN / NNNNNNNNGAGACCAAGGCTCTGCTCTTCC [T2 sgRNA 21 V1 ; T2 protospacer + 8N PAM library (pbPOS T2)] | 0.66 |  |  |
| GGAAGAGCAGAGCCUUGGUCUCGUUUGAGAGUAGUGUAAGAAAUUACACUACAAGUUCAAAUAAAAAUUUAUUCAAAUCCAUUUGCUACAUUGUGUAGAAUUUAAAGAUCUGGCAACAGAUCUUUUUUU / GGAAGAGCAGAGCCTTGGTCTCNNNNNNNN / NNNNNNNNGAGACCAAGGCTCTGCTCTTCC [T2 sgRNA 12 V2 ; T2 protospacer + 8N PAM library (pbPOS T2)] |  | 0.97 |  |
| GGAAGAGCAGAGCCUUGGUCUCGUUUGAGAGUAGUGUAAGAAAUUACACUACAAGUUCAAAUAAAAAUUUAUUCAAAUCCUUUUGCUACAUUGUGUAGAAUUUAAAGAUCUGGCAACAGAUCUUUUUUAUUUUUU / GGAAGAGCAGAGCCTTGGTCTCNNNNNNNN / NNNNNNNNGAGACCAAGGCTCTGCTCTTCC [T2 sgRNA 32 V1 ; T2 protospacer + 8N PAM library (pbPOS T2)] |  | 0.97 |  |
| GGAAGAGCAGAGCCUUGGUCUCGUUUUAGUACUCUGUUGGAAACAACAAUAGUUCUAAGAUAAGGCUAUUUAUGCCGUAGGGUAUGGUGGUAUCCCUUUAAUCCACCUUUAAGCCAUUGCUUAUGCAAUGGCUUAUCUAUAUUUUUU / GGAAGAGCAGAGCCTTGGTCTCNNNNNNNN / NNNNNNNNGAGACCAAGGCTCTGCTCTTCC [T2 sgRNA 4 V1 ; T2 protospacer + 8N PAM library (pbPOS T2)] |  |  | activity (1-depletion score) ([1]; PAM NNGGGGNN (specific NNRGGDNN)): 0.99 |
